By Kd is commonly meant a measure of binding affinity in units of concentration. Low values mean higher affinity, high ones lower affinity.

For 21 molecules, Kd results are on record in patent US20240182547A1 (MOGAM INSTITUTE FOR BIOMEDICAL RESEARCH, published 2024).

B1: #18m (antibody, V domains shown)
VH: EVQLVESGGGLVKPGGSLRLSCAASGFTFTSYRMHWVRQAPGKGLEWVSSITGGGNYIEYADSVKGRFTISRDNAKNSLDLQMNSLRAEDTAIYYCARDMYGLGSYYSPNYFDPWGQGTLVTVSS
VL: QSVLTQPLSVSGAPGQRVTISCTGSSSNIGAGYDVHWYQQVPGTAPKLLIFGSTNRPSGVPDRFSGSKSGASASLAITGLQADDEADYYCQSYDRSLSHVFGTGTKVTVL
notes: Germline-edited (m) form of 2H9, heavy and light chain edited; IgG; also called 2H9 (modified)
B2: 2G4 (antibody, V domains shown)
VH: EVQLVESGGGLVKPGGSLRLSCAASGFTFSSYTMHWVRQAPGKGLEWVSSITGGSSYVDYSASVKGRFTISRDNAQSSLYLQMNSLRAEDTAVYYCARDDYGSGSYSNWFDPWGQGTLVTVSS
VL: QSVLTQPPSVSGAPGQRVTISCTGSSSNIGAGYDVHWYQQVPGTAPKLLIFGSTNRPSGVPDRFSGSKSGTSASLAITGLQADDEADYYCQSYDRSLSHVFGTGTKVTVLG
notes: IgG made in Expi293; also called #1
B3: #20m (antibody, V domains shown)
VH: EVQLVESGGGLVKPGGSLRLSCAASGFTFTSYRMHWVRQAPGKGLEWVSSITGGGNYIEYADSVKGRFTISRDNAKNSLDLQMNSLRAEDTAIYYCARDMYGLGSYYSPNYFDPWGQGTLVTVSS
VL: QSVLTQPPSVSGAPGQRVTISCTGSSSNIGAGYDVHWYQQVPGTAPKLLIFGSTNRPSGVPDRFSGSKSGASASLAITGLQTEDEADYYCQSYDRSLSHVFGTGTKVTVLG
notes: Germline-edited (m) form of 3E10, light chain edited; IgG; also called 3E10 (modified)
B4: 2H1 (antibody, V domains shown)
VH: QVTLKESGGGVVQSGRSLRLSCAASGFTFSSYTMHWVRQAPGKGLEWVSSITGGSSYVDYSASVKGRFTISRDNAQSSLYLQMNSLRAEDTAVYYCARDDYGSGSYSNWFDPWGQGTLVTVSS
VL: QSVLTQPPSVSGAPGQRVTISCTGSSSNIGAGYDVHWYQQLPGRAPKLLIYANTNRPSGVADRFSGSKSGASASLAITGLQADDEADYYCQSYDRSLSHVFGTGTKVTVLG
notes: IgG made in Expi293; also called #9
B5: #16m (antibody, V domains shown)
VH: EVQLVESGGGLVKPGGSLRLSCAGSGFTFSSYTMHWVRQAPGKGLEWVSSITGGSSYVDYSASVKGRFTISRDNAQSSLYLQMNSLRAEDTAVYYCARDDYGSGSYSNWFDPWGRGTTVTVSS
VL: QSVLTQPLSASGTPGQRVTISCTGSSSNIGAGYDVHWYQQLPGRAPKLLIFANTNRPSGVPDRFSGSKSGTSASLAITGLQAEDEADYYCQSYDRSLSHVFGTGTKVTVLG
notes: Germline-edited (m) form of 3H8, light chain edited; IgG; also called 3H8 (modified)
B6: 4F11 (antibody, V domains shown)
VH: EVQLVESGGGLVKPGGSLRLSCAGSGFAFSSYTMHWVRQAPGKGLEWVSSITGGSSYLDYAHSVKGRFTISRDNGQNSLFLQMNSLRTEDTAVYYCARDDYGSGSYSNYFDPWGQGTLVTVSS
VL: QPVLTQPPSVSGAPGQRVTISCTGSSSNIGAGYDVHWYQQVPGTAPKLLIFGSTNRPSGVPDRFSGSKSGASASLAITGLQTEDEADYYCQSYDRSLSHVFGTGTKVTVLG
notes: IgG made in Expi293; also called #12; 12
B7: #17m (antibody, V domains shown)
VH: EVQLVESGGGLVQPGGSLRLACAASGFTFSSYTMHWVRQAPGKGLEWVSSITGGSSYVDYSASVKGRFTISRDNAQSSLYLQMNSLRAEDTAVYYCARDDYGSGSYSNWFDPWGQGTLVTVSS
VL: QSVLTQPPSVSGAPGQRVTISCTGSSSNIGAGYDVHWYQQLPGRAPKLLIFANTNRPSGVPDRFSGSKSGASASLAITGLQAEDEADYYCQSYDRSLSHVFGTGTKVTVLG
notes: Germline-edited (m) form of 4E1, light chain edited; IgG; also called 4E1 (modified)
B8: 2H9 (antibody, V domains shown)
VH: QVTLKESGGGLVKPGGSLRLSCAASGFTFTSYRMHWVRQAPGKGLEWVSSITGGGNYIEYADSVKGRFTISRDNAKNSLDLQMNSLRAEDTAIYYCARDMYGLGSYYSPNYFDPWGQGTLVTVSS
VL: SYELTQPLSVSGAPGQRVTISCTGSSSNIGAGYDVHWYQQVPGTAPKLLIFGSTNRPSGVPDRFSGSKSGASASLAITGLQADDEADYYCQSYDRSLSHVFGTGTKVTVLG
notes: IgG made in Expi293; also called #18; 18
B9: 12B11 (antibody, V domains shown)
VH: EVQLVESGGGVVQPGRSLRLACAASGFTFNSYAMHWVRQAPGKGLEWVSSITGGSSYVDYSASVKGRFTISRDNAQSSLYLQMNSLRAEDTAVYYCARDMYGLGSYYSPNYFDPWGQGTLVTVSS
VL: SYELTQPPSVSGAPGQRVTISCTGSSSNIGAGYDVHWYQQLPGRAPKLLIFANTNRPSGVPDRFSGSKSGTSASLAITGLQAEDEADYYCQSYDSSLSYVFGTGTKVTVLG
notes: IgG made in Expi293; also called #15; 15
B10: 12E9 (antibody, V domains shown)
VH: EVQLVESGGGLVKPGGSLRLSCAASGFTFTSYRMHWVRQAPGKGLEWVSSITGGGNYIEYADSVKGRFTISRDNAQSSLYLQMNSLRAEDTAVYYCARDDYGSGSYSNWFDPWGQGTLVTVSS
VL: QTVVTQEPSVSGAPGQRVTISCTGSSSNIGAGYDVHWYQQLPGRAPKLLIFANTNRPSGVPDRFSGSKSGASASLAITGLQADDEADYYCQSYDRSLSHVFGTGTKVTVLG
notes: IgG made in Expi293; also called #11; 11
B11: 3E10 (antibody, V domains shown)
VH: EVQLVESGGGLVKPGGSLRLSCAASGFTFTSYRMHWVRQAPGKGLEWVSSITGGGNYIEYADSVKGRFTISRDNAKNSLDLQMNSLRAEDTAIYYCARDMYGLGSYYSPNYFDPWGQGTLVTVSS
VL: QPVLTQPPSVSGAPGQRVTISCTGSSSNIGAGYDVHWYQQVPGTAPKLLIFGSTNRPSGVPDRFSGSKSGASASLAITGLQTEDEADYYCQSYDRSLSHVFGTGTKVTVLG
notes: IgG made in Expi293; also called #20; 20
B12: 3H8 (antibody, V domains shown)
VH: EVQLVESGGGLVKPGGSLRLSCAGSGFTFSSYTMHWVRQAPGKGLEWVSSITGGSSYVDYSASVKGRFTISRDNAQSSLYLQMNSLRAEDTAVYYCARDDYGSGSYSNWFDPWGRGTTVTVSS
VL: QPVLTQPLSASGTPGQRVTISCTGSSSNIGAGYDVHWYQQLPGRAPKLLIFANTNRPSGVPDRFSGSKSGTSASLAITGLQAEDEADYYCQSYDRSLSHVFGTGTKVTVLG
notes: IgG made in Expi293; also called #16; 16
B13: 2H3 (antibody, V domains shown)
VH: EVQLVESGGGVVQSGRSLRLSCAGSGFTFSSYTMHWVRQAPGKGLEWVSSITGGSSYVDYSASVKGRFTISRDNAQSSLYLQMNSLRAEDTAVYYCARDDYGSGSYSNWFDPWGQGTLVTVSS
VL: QSVLTQPPSVSGAPGQRVTISCTGSSSNIGAGYDVHWYQQVPGTAPKLLIFGSTNRPSGVPDRFSGSKSGASASLAITGLQTEDEADYYCQSYDRSLSHVFGTGTKVTVLG
notes: IgG made in Expi293; also called 2F5; #65
B14: #15m (antibody, V domains shown)
VH: EVQLVESGGGVVQPGRSLRLACAASGFTFNSYAMHWVRQAPGKGLEWVSSITGGSSYVDYSASVKGRFTISRDNAQSSLYLQMNSLRAEDTAVYYCARDMYGLGSYYSPNYFDPWGQGTLVTVSS
VL: QSVLTQPPSVSGAPGQRVTISCTGSSSNIGAGYDVHWYQQLPGRAPKLLIFANTNRPSGVPDRFSGSKSGTSASLAITGLQAEDEADYYCQSYDSSLSYVFGTGTKVTVLG
notes: Germline-edited (m) form of 12B11, light chain edited; IgG; also called 12B11 (modified)
B15: 4G4 (antibody, V domains shown)
VH: EVQLVESGGGLVKPGGSLRLSCAGSGFTFSSYTMHWVRQAPGKGLEWVSSITGGSSYVDYSASVKGRFTISRDNAQSSLYLQMNSLRAEDTAVYYCARDDYGSGSYSNWFDPWGQGTLVTVSS
VL: QSVLTQPPSVSGAPGQRVTISCTGNSSNLGAGYDVHWYQQLPGTAPKLLIYANTNRPSGVPDRFSGSKSGASASLAITGLQTEDEADYYCQSYDRSLSHVFGTGTKVTVLG
notes: IgG made in Expi293; also called #10; 10
B16: 4E1 (antibody, V domains shown)
VH: EVQLVESGGGLVQPGGSLRLACAASGFTFSSYTMHWVRQAPGKGLEWVSSITGGSSYVDYSASVKGRFTISRDNAQSSLYLQMNSLRAEDTAVYYCARDDYGSGSYSNWFDPWGQGTLVTVSS
VL: SYELTQPPSVSGAPGQRVTISCTGSSSNIGAGYDVHWYQQLPGRAPKLLIFANTNRPSGVPDRFSGSKSGASASLAITGLQAEDEADYYCQSYDRSLSHVFGTGTKVTVLG
notes: IgG made in Expi293; also called #17; 17
B17: 10E7 (antibody, V domains shown)
VH: EVQLVESGGGLVKPGGSLRLSCAASGFTFTSYRMHWVRQAPGKGLEWVSSITGGGNYIEYADSVKGRFTISRDNAKNSLDLQMNSLRAEDTAIYYCARDMYGLGSYYSPNYFDSWGQGTLVTVSS
VL: QSVLTQPPSVSGAPGQRVTISCTGSSSNIGAGYDVHWYQQLPGRAPKLLIFANTNRPSGVPDRFSGSKSGASASLAITGLQADDEADYYCQSYDRSLSHVFGTGTKVTVLG
notes: IgG made in Expi293; also called #13; 13
B18: 2E9 (antibody, V domains shown)
VH: QVTLKESGGGLVKPGGSLRLSCAGSGFTFSSYTMHWVRQAPGKGLEWVSSITGGSSYVDYSASVKGRFTISRDNAKNSLFLQMNSLRAEDTAVYYCARDDYGSGSYSNWFDPWGQGTLVTVSS
VL: QSVLTQPPSVSGAPGQRVTISCTGSSSNIGAGYDVHWYQQLPGRAPKLLIFANTNRPSGVPDRFSGSKSGASASLAITGLQADDEADYYCQSYDRSLSHVFGTGTKVTVLG
notes: IgG made in Expi293; also called #14; 14
B19: #12m (antibody, V domains shown)
VH: EVQLVESGGGLVKPGGSLRLSCAGSGFAFSSYTMHWVRQAPGKGLEWVSSITGGSSYLDYAHSVKGRFTISRDNGQNSLFLQMNSLRTEDTAVYYCARDDYGSGSYSNYFDPWGQGTLVTVSS
VL: QSVLTQPPSVSGAPGQRVTISCTGSSSNIGAGYDVHWYQQVPGTAPKLLIFGSTNRPSGVPDRFSGSKSGASASLAITGLQTEDEADYYCQSYDRSLSHVFGTGTKVTVLG
notes: Germline-edited (m) form of 4F11, light chain edited; IgG; also called 4F11 (modified)
B20: #11m (antibody, V domains shown)
VH: EVQLVESGGGLVKPGGSLRLSCAASGFTFTSYRMHWVRQAPGKGLEWVSSITGGGNYIEYADSVKGRFTISRDNAQSSLYLQMNSLRAEDTAVYYCARDDYGSGSYSNWFDPWGQGTLVTVSS
VL: QSVLTQPPSVSGAPGQRVTISCTGSSSNIGAGYDVHWYQQLPGRAPKLLIFANTNRPSGVPDRFSGSKSGASASLAITGLQADDEADYYCQSYDRSLSHVFGTGTKVTVLG
notes: Germline-edited (m) form of 12E9, light chain edited; IgG; also called 12E9 (modified)
B21: 12C11 (antibody, V domains shown)
VH: EVQLVESGGGLVKPGGSLRLSCAASGFTFTSYRMHWVRQAPGKRLEWVSSITGGGNYIEYADSVKGRFTISRDNAKNSLDLQMNSLRAEDTAIYYCARDMYGLGSYYSPNYFDPWGQGTLVTVSS
VL: QSVLTQPPSVSGAPGQRVTISCTGSSSNIGAGYDVHWYQQVPGTAPKLLIFGSTNRPSGVPDRFSGSKSGASASLAITGLQTEDEADYYCQSYDRSLSHVFGTGTKVTVLG
notes: IgG made in Expi293; also called #19; 19

The target of the experiment is DS-Cav1 (RSV F-protein, pre-form, in-house) (respiratory syncytial virus (RSV), UniProt P03420 26-513). In words: ELISA, coated DS-Cav1, IgG titrated.
DS-Cav1 (RSV F-protein, pre-form, in-house), sequence (P03420 26-524): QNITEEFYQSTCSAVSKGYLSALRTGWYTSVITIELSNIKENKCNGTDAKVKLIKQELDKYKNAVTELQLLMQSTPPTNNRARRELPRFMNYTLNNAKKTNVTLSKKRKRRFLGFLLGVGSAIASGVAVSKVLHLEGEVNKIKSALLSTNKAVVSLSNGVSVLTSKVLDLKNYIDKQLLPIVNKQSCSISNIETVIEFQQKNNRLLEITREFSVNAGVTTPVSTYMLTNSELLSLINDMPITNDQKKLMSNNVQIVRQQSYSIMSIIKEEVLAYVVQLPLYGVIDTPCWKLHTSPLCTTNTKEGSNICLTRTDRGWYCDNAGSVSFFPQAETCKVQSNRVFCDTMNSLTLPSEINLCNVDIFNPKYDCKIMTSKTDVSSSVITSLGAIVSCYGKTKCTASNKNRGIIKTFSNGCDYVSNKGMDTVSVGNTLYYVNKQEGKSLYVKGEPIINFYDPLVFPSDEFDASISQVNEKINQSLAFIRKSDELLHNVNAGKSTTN
As for B1, the Kd is approximately 1.84 nM. B2 came in with a Kd of approximately 1.01 nM. To B3 belongs approximately 0.88 nM; to B4, approximately 1.95 nM. The molecule B5 returned a Kd of approximately 0.97 nM.

In turn, B6 gave a Kd of approximately 0.43 nM. As for B7, the Kd is approximately 1.13 nM. B8 gave a Kd of approximately 0.38 nM. In the case of B9, the Kd was approximately 0.72 nM. B10: the Kd is approximately 0.57 nM. B11 returned a Kd of approximately 0.52 nM.

Take B12: the Kd was approximately 0.51 nM. With B13, the Kd is approximately 0.98 nM. The molecule B14 gave a Kd of approximately 1.2 nM. Regarding B15, the Kd was approximately 0.38 nM.

For the molecule B16, the Kd is approximately 0.56 nM. The molecule B17 showed a Kd of approximately 1.73 nM. Molecule B18 registered a Kd of approximately 0.48 nM. Take B19: the Kd is approximately 1.82 nM. B20 registered a Kd of approximately 2.01 nM.

B21 had a Kd of approximately 0.72 nM.
